We go through twelve molecules from paper PMC10333884, “Large‐scale phosphomimetic screening identifies phospho‐modulated motif‐based protein interactions” (Molecular Systems Biology, 2023).

Test [1] has as its target T1, GGA1 VHS (human), Q9UJY5.
T1 chain: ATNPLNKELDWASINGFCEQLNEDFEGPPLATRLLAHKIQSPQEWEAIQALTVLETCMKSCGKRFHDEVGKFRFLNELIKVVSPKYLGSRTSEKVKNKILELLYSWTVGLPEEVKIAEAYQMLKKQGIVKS
The test can be described thus: fluorescence polarisation; displacement of a FITC-labelled probe peptide (5 nM in the measurement) from the protein domain (1-2 fold over the probe's KD) by a dilution series of unlabelled peptide; room temperature; 50 mM sodium phosphate pH 7.4; KD calculated from the displacement curve; for KPNA4 ARM one probe for each pocket.

In test [2] the target is MAP1LC3A (human). Briefly: FP. To be noted: modification not given.
The target in test [3] is SNX27 PDZ (human), Q96L92. The test can be described thus: FP. The following applies: modification not given.
Test [4] deals with T2, TSG101 UEV (human), Q99816.
T2 chain: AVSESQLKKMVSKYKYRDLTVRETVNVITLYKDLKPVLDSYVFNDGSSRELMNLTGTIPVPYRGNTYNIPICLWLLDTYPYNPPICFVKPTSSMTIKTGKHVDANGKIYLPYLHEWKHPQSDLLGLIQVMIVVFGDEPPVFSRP
Briefly: FP. To be noted: modification not given.

Test [5] deals with RANBP2 RanBD4 (human). Briefly: fluorescence polarisation; displacement of a FITC-labelled probe peptide (5 nM in the measurement) from the protein domain (1-2 fold over the probe's KD) by a dilution series of unlabelled peptide; room temperature; 50 mM sodium phosphate pH 7.4; KD calculated from the displacement curve; for KPNA4 ARM one probe for each pocket.

With DLLESPDVGLLKLAS (modifications not checked) [JUN_(59–73), phosphomimetic (E), P05412 59-73], in test [1], the equilibrium dissociation constant (Kd) is 450 µM.

As for QNLSRSWHDVQVSSAY [TPD52L2 pS], the 50% inhibitory concentration (IC50) in test [2] stood at 60 µM.

Consider GMVSSTSFNGG [DAXX pS], for which the IC50 in test [3] is 427 µM.

Regarding HSGNVTPTAPPYLQES [TMEM55A pS], the IC50 in test [4] amounted to 34 µM.

Regarding NGCSSPTAPLSPMSP [GJA1 pS], the IC50 in test [4] was 420 µM.

With ETYYLSDEPLLGPPVG (modifications not checked) [GTSE1_(145–160), phosphomimetic (E), Q9NYZ3 145-160], the equilibrium dissociation constant (Kd) in test [1] was 199 µM.

Consider INLFEKEKEMKKSPTS (modifications not checked) [GTSE1_(145–160), wild‐type, Q9NYZ3 145-160], for which the Kd in test [1] is 96 µM.

As for KYSDDTPLPEPSYKYN (modifications not checked) [DHX38_(260–275), phosphomimetic (E), Q92620 260-275], the Kd in test [5] was 470 µM.

QNLSREWHDVQVSSAY [TPD52L2 E] yielded a concentration for half-maximal inhibition (IC50) in test [2] of 223 µM.

For the molecule GMVSETSFNGG [DAXX E], the IC50 in test [3] worked out at 117 µM.

In turn, NGCSSPTAPLEPMSP [GJA1 E] came in with an IC50 in test [4] of 232 µM.

For the molecule HSGNVEPTAPPYLQES [TMEM55A E], the IC50 in test [4] was 37 µM.

For orientation: Kd means the equilibrium constant for the complex coming apart. Usually IC50 stands for the concentration at which inhibition is half-maximal. The low end stands for inhibition by little substance, the high end for a need for much substance.
